Data from article PMC5093203 (Pharmaceutical Research, 2016).
Marks after values point to notes of the source that are not given here.

How the values were obtained:
[1] = set-up: species or system Sprague Dawley rats; settings: rat, in vivo, iv
Procedure: The 5/6-nephrectomized and sham male Sprague Dawley rats were obtained from Taconic Farms (Albany, NY, USA). Animals were housed two per cage in polycarbonate cages with filter tops. Animals were maintained on a 12/12 h light/dark cycle (lights on at 6:00 AM). All animals received water and LabDiet 5001 (PMI Nutrition International, Brentwood, MO, USA) ad libitum. Animals were monitored daily during the 5-week time frame that allowed progression of the disease state. Seven weeks post-surgery, blood was collected by tail clip into serum tubes for measurement of serum creatinine and blood urea nitrogen. Three days later, urine was collected for 24 h from animals housed in metabolism cages. […]
BIL concentrations in serum and lymph were determined by ELISA performed by the bioanalytical testing facility Charles River Laboratories Preclinical Services (Senneville, Quebec, Canada) as described previously for rat serum ([27]). The assay quantitation range for rat serum was 20 pM to 500 pM. […] Samples above the upper limit of quantitation were diluted and reanalyzed to gain results within the calibrated range. […]
Noncompartmental pharmacokinetic parameters for the rat study were determined using WinNonlin® professional v5.3 (Pharsight, St. Louis, MO, USA) and for the sheep study using Watson^TM (version 7.4.2 PRD872, Thermo Fisher Scientific, Inc). […] Descriptive statistics were calculated as appropriate. […]

[2] = Serum pharmacokinetics in non-LDC sheep (IV, SC); type: in vivo, merino sheep
Procedure: (§1) Surgery was performed under aseptic conditions.
(§2) Blood samples (3 mL) were collected into 4 mL serum collection tubes (Becton, Dickinson and Company, Scoresby, Victoria, Australia) at the following time points (hour): predose, […] (1 min, IV only), 0.083 (5 min, IV only), 0.25 (15 min, IV only), 0.5, 1, 2, 3 (SC LDC only), 4, 6, 8, 10, 12 (all IV and SC LDC), 18 (SC non-LDC only), 30 (all SC), 39 (SC non-LDC only), 48 (all SC), 54 (all SC), 72 (all SC), 96 (SC LDC only), and 120 (SC LDC only) hours postdose. The jugular cannula was flushed with heparinized saline (50 IU/mL) between samples to maintain patency. Blood samples were allowed to stand at room temperature for up to 1 h and were then centrifuged for 10 min 6000 rpm to separate serum.
(§3) Noncompartmental pharmacokinetic parameters for the rat study were determined using WinNonlin® professional v5.3 (Pharsight, St. Louis, MO, USA) and for the sheep study using Watson^TM (version 7.4.2 PRD872, Thermo Fisher Scientific, Inc). Concentrations below the lower limit of quantitation were assigned a value of zero and the zero result used in the calculation of means and standard deviation using MicroSoft® Office® Excel® 2010 (version 14.0.; Redmond, WA). Descriptive statistics were calculated as appropriate. SigmaPlot® v11 (Systsat Software, IC., San Jose, CA, USA) and Excel® were used for the graphics.

[3] = rat, in vivo, sc; cited from earlier work
[4] = in vivo; cited from earlier work
[5] = Hydrodynamic size by dynamic light scattering (DLS); type: physicochemical; settings: 25 ± 1°C, 90° scattering angle, 633 nm, ~85 μM in 1x PBS, viscosity-corrected
Procedure: Weighed-samples of freeze-dried powder were dissolved in 1x phosphate-buffered saline (PBS) to a final concentration of ~85 μM. Concentrated protein stock solutions were diluted ~20-fold in 1 × PBS buffer to achieve a final concentration of ~85 μM. Protein concentrations (OD276 (1 mg/ml) = 1 for a 1 cm cuvette) were measured by NanoDrop (Thermo Fisher Scientific, Waltham, MA, USA). All samples were filtered through Whatman Anatop10™ low protein-binding filters (Whatman, Kent, UK) before the DLS experiments. Solution viscosity was measured by an m-VROC® (RheoSense, Inc., San Ramon, CA, USA) viscometer and light scattering data were corrected using the measured viscosity.
DLS measurements were carried out at 25 ± 1°C at a 90° scattering angle using an ALV/CGS-3 Compact Goniometer system with ALV/LSE-5003 Light Scattering Electronics and Multiple Tau Digital Correlator (ALV®-GmbH, Langen, Germany). The laser operating wavelength was 633 nm. The apparent hydrodynamic radius Rh was estimated via the Stoke-Einstein equation (Eq. 1):1 Rh=kBT/6πηD where, Rh is the apparent hydrodynamic radius (m), kB is the Boltzmann constant (kg^●m^2/s^2●K), T is the absolute temperature (K), η is the viscosity (kg/m•s), and D is the diffusion constant (m^2/s). DH is the apparent hydrodynamic diameter in nm or 2 Rhinnm . The viscosity measurement was performed with a solution concentration of 0.49 ± 0.02 mg/mL at 25°C. Viscosity mean and SD was determined from n ≥8 and reported as cP, (g/cm•s) = 10^−3 × Pa•s (kg/m•s)

[6] = Serum pharmacokinetics in lymph duct cannulated (LDC) sheep (IV, SC); set-up: species or system merino sheep; settings: in vivo
Procedure: as §1, §2, §3

[7] = in vivo, sc
Procedure: Using a parallel group design, BIL was administered by single dose SC injection to non-LDC control sheep and to LDC sheep with a surgically placed popliteal lymph duct cannula (Table I). Blood was collected in each group, and lymph was continuously collected in the LDC sheep. BIL was also administered by bolus IV injection to a separate group of non-LDC animals for determining bioavailability and PK linearity.
Surgery was performed under aseptic conditions. Castrated male merino sheep (H.M. Barty & Sons Merino Stud, Robinvale, Victoria, Australia) weighing 31–48 kg were used. […]
In LDC sheep, lymph samples were collected in pre-weighed tubes containing 10 μL/mL of 10% EDTA at the following time points: Predose, 0–1, 1–2, 2–3, 3–4, 4–5, 5–6, 6–7, 7–8, 8–9, 9–10, 10–11, 11–12, 12–24, 24–36, 36–48, 48–60, 60–72, 72–84, 84–96 h post dose. At each time interval, the amount of lymph collected was determined gravimetrically. […]
BIL concentrations in serum and lymph were determined by ELISA performed by the bioanalytical testing facility Charles River Laboratories Preclinical Services (Senneville, Quebec, Canada) as described previously for rat serum ([27]). The assay quantitation range for rat serum was 20 pM to 500 pM. Assay quantitation range for sheep serum was from 20 pM to 500 pM. […] The quantitation range for sheep lymph was also 20 to 500 pM. […]

[8] = LDC sheep, SC commercially formulated human insulin; cited from earlier work
[9] = set-up: method as in 2 sources, ref 28 = [28]; PMID 22353017; doi:10.1021/mp200470c; 28. Gokarn YR McLean M Laue TM Effect of PEGylation on protein hydrodynamics Mol Pharm 2012 9 4 762 73 10.1021/mp200470c 22353017 ||| ref 28, 34, 35 = [28]; PMID 22353017; doi:10.1021/mp200470c; 28. Gokarn YR McLean M Laue TM Effect of PEGylation on protein hydrodynamics Mol Pharm 2012 9 4 762 73 10.1021/mp200470c 22353017 || [34]; PMID 23499718; doi:10.1016/j.jconrel.2013.03.006; 34. Kaminskas LM Ascher DB McLeod VM Herold MJ Le CP Sloan EK PEGylation of interferon alpha2 improves lymphatic exposure after subcutaneous and intravenous administration and improves antitumour effi || [35]; PMID 19686787; doi:10.1016/j.jconrel.2009.08.005; 35. Kaminskas LM Kota J McLeod VM Kelly BD Karellas P Porter CJ PEGylation of polylysine dendrimers improves absorption and lymphatic targeting following SC administration in rats J Controlled Release; settings: 14.3-kDa egg white lysozyme with vs without 20-kDa PEG; cited from earlier work
[10] = non-LDC sheep, SC 120 nmol, serum, mean ± SD, N = 5

## insulin peglispro [BIL]
[1]
  clearance in sham versus 5/6-nephrectomized rats (in words): similar
[2]; in vivo, iv, 20 nmol
  AUC0-t: 0.0125667 ± 0.0018009 µM·h
  C0: 11.133 ± 1.234 nM
  CL: 0.70 ± 0.09 mL/min/kg
  T1/2: 1.6 ± 0.1 h
  Vdss: 0.05 ± 0.01 L/kg
[2]; in vivo, iv, 40 nmol
  AUC0-t: 0.040075 ± 0.0124583 µM·h
  C0: 27.9 ± 6.124 nM
  CL: 0.53 ± 0.21 mL/min/kg
  T1/2: 2.8 ± 0.3 h
  Vdss: 0.04 ± 0.01 L/kg
[2]; in vivo, iv, 120 nmol
  AUC0-t: 0.1116667 ± 0.0150444 µM·h
  C0: 60.4 ± 1.039 nM
  CL: 0.47 ± 0.06 mL/min/kg
  T1/2: 3.3 ± 1.2 h
  Vdss: 0.07 ± 0.04 L/kg
[2]; in vivo, sc
  % bioavailability: 123%
[2]; in vivo, sc, 120 nmol
  AUC0-t: 0.14296 ± 0.0838207 µM·h
[2]; [10]
  T1/2: 7.5 ± 5.1 h
  Tmax: 2.4 ± 0.9 h
[3]
  % of dose excreted unchanged in urine: 2.5%
[4]
  PK properties in renal insufficiency (in words): unaffected
[5]
  apparent hydrodynamic diameter (DH): 7.6 nm
[6]; iv, 120 nmol
  AUC0-t: 0.1395 ± 0.0606932 µM·h
  C0: 70.175 ± 13.6001 nM
  CL: 0.37 ± 0.12 mL/min/kg
  T1/2: 5.7 ± 2.1 h
  Vdss: 0.04 ± 0.01 L/kg
[6]; sc
  % bioavailability: < 2%
[6]; sc, 120 nmol
  % bioavailability: 1.7%
  AUC0-t: 0.0025945 ± 0.0025636 µM·h
  Cmax: 0.4153 ± 0.384 nM
  T1/2: 4.6 ± 4.0^a hours
  Tmax: 2.3 ± 1.0 h
[7]
  % of dose recovered in the peripheral lymph: 88%

## insulin
[5]
  apparent hydrodynamic diameter (DH): 2.1 nm
[8]
  % of the insulin dose recovered in the peripheral lymph: 17.3%

## 20-kDa PEG egg white lysozyme: 14.3-kDa egg white lysozyme with addition of 20-kDa PEG
[9]
  hydrodynamic diameter: 9.6 nm

## leptin
[5]
  apparent hydrodynamic diameter (DH): 4.3 nm
[5]; listed as Leptin
  apparent hydrodynamic diameter (DH): 4.2 nm

## egg white lysozyme
[9]
  hydrodynamic diameter: 4.0 nm
